Laboratory results as given in the supplement of paper PMC9170038.

System: K4 kissing-loop RNA reporter
Assay: apparent KD of K4 kissing-loop reporter; higher = weaker reporter binding
Conditions: Eterna round: R107
Description: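 RNA-MaP round R107: designed RNA switches with theophylline, tryptophan, arginine or FMN aptamers are transcribed on-chip within common flanks. They are titrated with a labelled K4 kissing-loop RNA reporter in RNA-MaP buffer (100 mM Tris pH 7.5, 80 mM KCl, 4 mM MgCl2), without ligand or with the indicated ligand. Median apparent KD per design.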

[1] = input ligand: theophylline 20 uM
[2] = input ligand: tryptophan 2.4 mM
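Also: bound reporter read as fluorescence of individual clusters on recovered sequencing chips by microscopy, with normalized cluster intensities fitted with a binding model.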

Sequence	apparent KD of K4 kissing-loop reporter (input ligand: FMN 200 uM)	apparent KD of K4 kissing-loop reporter (input ligand: arginine 13.2 mM)	apparent KD of K4 kissing-loop reporter (input ligand: none)	apparent KD of K4 kissing-loop reporter [1]	apparent KD of K4 kissing-loop reporter [2]
GAGUCGGCACAAGGAUAUAGGUGUAGUGAUGUUAUGUCUCCUUGACUCACUCGUUACCCUCAACGUCUAGAAGGUGUGAAUGCAG [theeternabot_exclusion_KL_FMN_B_46]	328 nM	240 nM	290 nM	229 nM	251 nM
GAUAUAGUGAUGUUAUAUACUGAUAGACAACGAGGACCGGUACGGCCGCCACUCGAGAGGGUGAAAAUGAUGAUAAAAUAAUAAU [#01 K4 Tryptophan A Exclusion]	341 nM	283 nM	341 nM	374 nM	269 nM
GAUCCAUGACAAGGAUAUUCGCCAACGGUGCCGGAGUGAUGUUCUGCACAACAGACUACAAGUAAGGAAGAAGGUGUCAGUUACC [theeternabot_sameState_KL_FMN_B_29]	595 nM	843 nM	946 nM	609 nM	561 nM
GAUGAUCGCGCGGCCGCCACUGGUCAGUGAUGUUGACAUUAAUGCGCCGAGUAGUAACGGCGCAGCAGGACCGGGCGCGAUGUAG [#12 K4 Tryptophan B Same State]	144 nM	141 nM	145 nM	121 nM	163 nM
GAUUCCCAAGCGGCCGCCACUUAUAGUGAUGUUAUAGGGACUGCGGAUCAGGACAAUCAUACAUAAAGGACCGGGCUAUUCUGAC [theeternabot_exclusion_KL_Trp_B_1]	264 nM	246 nM	305 nM	255 nM	261 nM
GCAAAACUCAGUGAUGUUGAGAUAUCGGAAGGAGCGCGUGAAAACGCAGGUAGGUCGCCGAUUCAAUGAGUUUCUCGUUGUUUGC [Arginine A K4 20]	248 nM	305 nM	318 nM	303 nM	288 nM
GCAGUGAUGUUGCACGAGUAGGCUGGAGUACGAGGACCGGUACGGCCGCCACUCGUACGAAAGUCGCUAAUUUAUGGAAUGGUGA [#07 K4 Tryptophan A Same State]	650 nM	623 nM	668 nM	602 nM	467 nM
GCAGUGAUGUUGCUGAUGUACAGUGGGAUACGAGGACCGGUACGGCCGCCACUCGUACAGAAUUUGUUAAUACAUCGAUAAGUGA [XV]	377 nM	360 nM	526 nM	436 nM	522 nM
GCAGUGAUGUUGCUGGUGUGCAGUGGUAGUCGAGGACCGGUACGGCCGCCACUCGGUGAGAACCUGCUAAUACAUCGAUAAGUGA [XVIII]	550 nM	369 nM	738 nM	463 nM	558 nM
GCAUAGGCCCAUCGGAAUUCGAGACCAGCACGAGGACCGGUACGGCCGCCACUCGUGCAGUGAUGUUGCACGAUUGGGAAACCGC [Beanveceti]	115 nM	100 nM	101 nM	104 nM	111 nM
GCAUCCGAUGCAGGAUAUAGAUGAACGAGUGAUGUUUGGAAUUUAUGUCCAAAGCCUACGAUCAAACUAGAAGGGCAUCGGAUGC	334 nM	266 nM	161 nM	167 nM	192 nM
GCAUGUAUGCGAGAGUGAUGUUCAUGGUUUCGAGGACCGGUACGGCCGCCACUCGCGAUCCGGCGUACAAUCGUGAAGUUAUCAU [theeternabot_sameState_KL_Trp_A_42]	736 nM	469 nM	655 nM	542 nM	672 nM
GCCAGAGCGCGAAGGAGCGCCGUGACAGGUUACUGCCUUGGGCAGUGAUGUUGCUCAAUCUGGCAGGUAGGUCGCGUGCUCUGGC	179 nM	185 nM	215 nM	202 nM	168 nM
GCCGUACGCAUGGAUACCAGCAUUUAUGACACACUGCUAGUGAUGUUAGCUAUGCGUAUAUGCCCUUGGCAGCCAUGCGUACGGC	150 nM	128 nM	140 nM	87.4 nM	133 nM
GCCGUACGCAUGGAUACCAGUCUUAGAGUGAUGUUCUAAACGAUUGCGCCUGGAUCAAUGGACCCUUGGCAGCCAUGCGUACGGC	130 nM	119 nM	129 nM	92.4 nM	154 nM
GCCGUAGAUGGAAGGAGCGACUUCAGCGGAUAAACGUGACAAUUGGAGUGAUGUUCGCAAGGUCAGGUAGGUCGCCAUCUACGGC	819 nM	211 nM	260 nM	274 nM	313 nM
GCCGUAGAUGGAAGGAGCGUGAUAAGUGAAUUAUCCAGUGAUGUUGGAUCUUAGAUAGGAUCACAGGUAGGUCGCCAUCUACGGC	244 nM	181 nM	217 nM	297 nM	192 nM
